Measurements taken from patent publication US20100105622A1 (UNIVERSIDAD DE BARCELONA, published 2010).

Biological target: Bovine Serum Albumin (BSA) (bovine, UniProt P02769 25-607)
Test: ELISA, BSA coated on the plate, rsCD6 added at several concentrations, detected with biotin-labeled anti-CD6 mAb (MAE) and streptavidin-HRP
Description: Twelve μg of LPS purified from E. coli O111:B4 (Sigma), Zymosan from Saccharomyces cerevisae (Sigma), peptidoglycan purified from S. aureus (Fluka) or Bovine Serum Albumin (BSA), were used to coat 96-well microtiter plates (Nunc, Roskilde, Denmark) in PBS, overnight at 4° C. Non-specific binding to the wells was prevented by the addition of PBS containing 1% BSA for 1 h at room temperature. Several concentrations of rsCD6 were then added to the wells and incubated for 3 h at room temperature. Bound protein was detected by the addition of a 1:200 dilution of biotin-labeled mAb anti-CD6 (MAE) for 1 h at RT, followed by a 1:1000 dilution of HRP-labeled streptavidin (DAKO, Glostrup, Denmark), which was incubated for 30 min at RT. Between each incubation step, unbound protein or HRP-streptavidin was washed off three times with PBS plus 0.01% Tween-20. Color was developed by adding 3,3′,5,5′-tetramethylbenzidine liquid substrate (Sigma), and the absorbance was read at 405 nm. The assay was repeated three times with similar results.

Bovine Serum Albumin (BSA), sequence (P02769 25-607 limits assumed): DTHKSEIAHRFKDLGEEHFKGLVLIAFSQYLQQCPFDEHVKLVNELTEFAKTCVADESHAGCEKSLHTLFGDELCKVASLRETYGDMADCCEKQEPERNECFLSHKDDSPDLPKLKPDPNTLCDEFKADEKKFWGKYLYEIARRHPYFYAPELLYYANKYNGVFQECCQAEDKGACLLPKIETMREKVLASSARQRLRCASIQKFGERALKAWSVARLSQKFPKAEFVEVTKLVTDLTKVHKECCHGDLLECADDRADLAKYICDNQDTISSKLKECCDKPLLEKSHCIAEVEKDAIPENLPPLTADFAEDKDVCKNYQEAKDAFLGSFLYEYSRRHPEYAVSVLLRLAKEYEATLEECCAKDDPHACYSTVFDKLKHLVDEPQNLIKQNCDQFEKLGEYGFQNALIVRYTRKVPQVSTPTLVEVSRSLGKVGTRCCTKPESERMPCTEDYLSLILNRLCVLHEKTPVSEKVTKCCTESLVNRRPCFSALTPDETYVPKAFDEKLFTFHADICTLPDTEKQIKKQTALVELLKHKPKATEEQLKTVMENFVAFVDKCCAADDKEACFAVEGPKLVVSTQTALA

B1: rsCD6, recombinant soluble ectodomain of human CD6 (amino acids D25 to E384, immature protein numbering) (receptor, UniProt P30203 25-384, looked up)
chain: DQLNTSSAESELWEPGERLPVRLTNGSSSCSGTVEVRLEASWEPACGALWDSRAAEAVCRALGCGGAEAASQLAPPTPELPPPPAAGNTSVAANATLAGAPALLCSGAEWRLCEVVEHACRSDGRRARVTCAENRALRLVDGGGACAGRVEMLEHGEWGSVCDDTWDLEDAHVVCRQLGCGWAVQALPGLHFTPGRGPIHRDQVNCSGAEAYLWDCPGLPGQHYCGHKEDAGAVCSEHQSWRLTGGADRCEGQVEVHFRGVWNTVCDSEWYPSEAKVLCQSLGCGTAVERPKGLPHSLSGRMYYSCNGEELTLSNCSWRFNNSNLCSQSLAARVLCSASRSLHNLSTPEVPASVQTVTIE
notes: range 25-384; Used as unpurified serum-free culture supernatant to coat wells in the gp120 ELISA; also called recombinant soluble CD6; rCD6
- binding result: no binding
